According to US20250122280A1, “ANTI-Ly6E ANTIBODIES, IMMUNOCONJUGATES, AND USES THEREOF” (Genentech, Inc., priority 2022, published 2025):

Columns and labels:
[1] = target: T1, Ly6E on cell lines known to express Ly6E (Kuramochi, NCI-H1781, HCC1569x2) (human, UniProt Q16553 21-101); experiment: cell-based or functional assay
T1 sequence: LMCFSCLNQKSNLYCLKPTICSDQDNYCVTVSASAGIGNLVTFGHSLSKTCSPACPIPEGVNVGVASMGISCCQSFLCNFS

[2] = target: T1, Ly6E on cell lines known to express …; experiment: flow cytometry on Kuramochi cells
Description: (§1) Cell lines were cultured as recommended by the ATCC. Prior to staining adherent lines were released by Accutase treatment, all cells were filtered and equilibrated in BD Stain buffer (BSA). […] Samples were fixed in 1% PFA (PBS) prior to analysis. Samples were assessed on a BD LSRFortessa. Following exclusion of dead cells, singlets were assessed for antibody binding using FlowJo software (FIGS. 2A-2C).

[3] = target: T1, Ly6E on cell lines known to express …; experiment: flow cytometry on NCI-H1781 cells
[4] = target: T1, Ly6E on cell lines known to express …; experiment: flow cytometry of Fabs on NCI-H1781 cells
Description: as §1

B1: chimeric (Ch) Ly6E 3A3 ThioMab drug conjugate with SN36325 (antibody, V domains shown)
VH: AVQLVEFGGGLVQPKESLKISCAASGFTFSTVAMHWVRQAPGKGLEWIARIRTKPVNYETYYADSVKGRFTISRDDSKSMVYLQMDNLKTEDAAMYYCSAPNYYDGTYSFAYWGQGTLVTVSS
VL: DIVMTQSPTSISISVGERVTMNCKASQNVGSNVDWYQQKTGQSPELLIYKASNRYTGVPGRFTGSGSGTDFTFTISNLQAEDLAVYYCMQSDTKYTFGAGTKVEIKR
modifications: engineered cysteine carrying the SN36325 (seco-CBI-dimer) linker-drug on heavy and/or light chain; position not stated
[1]
  potency difference from non-target control, 5 day anti-proliferation assay (CellTiter-Glo), cell line NCl-H1781: > 400 fold

B2: chimeric anti-Ly6E antibody clone 3A3 (rat-human chimeric antibody) (antibody, human IgG1, kappa, V domains shown)
VH: AVQLVEFGGGLVQPKESLKISCAASGFTFSTVAMHWVRQAPGKGLEWIARIRTKPVNYETYYADSVKGRFTISRDDSKSMVYLQMDNLKTEDAAMYYCSAPNYYDGTYSFAYWGQGTLVTVSS
VL: DIVMTQSPTSISISVGERVTMNCKASQNVGSNVDWYQQKTGQSPELLIYKASNRYTGVPGRFTGSGSGTDFTFTISNLQAEDLAVYYCMQSDTKYTFGAGTKVEIKR
notes: Rat variable domains on human IgG1/kappa constant regions; also called Ch Ly6E 3A3
[2]
  binding result: binds

B3: humanized anti-Ly6E (comprising SEQ ID NOs. 3 and 5) (antibody, human IgG1, kappa, V domains shown)
VH: EVQLVESGGGLVQPGGSLKLSCAASGFTFSTVAMHWVRQASGKGLEWVGRIRTKPVNYETYYADSVKGRFTISRDDSKSTVYLQMNSLKTEDTAVYYCSAPNYYDGTYSFAYWGQGTLVTVSS
VL: DIQMTQSPSSLSASVGDRVTITCKASQNVGSNVDWYQQKPGKAPKLLIYKASNRYTGVPSRFSGSGSGTDFTFTISSLQPEDIATYYCMQSETKYTFGQGTKVEIKR
notes: also called the humanized version; 3A3.v2.D92E
[3]
  EC50 (read off the curve): ~2 mg/L

B4: Fab of humanized anti-Ly6E variant LC D92S (Fab, V domains shown)
VH: EVQLVESGGGLVQPGGSLKLSCAASGFTFSTVAMHWVRQASGKGLEWVGRIRTKPVNYETYYADSVKGRFTISRDDSKSTVYLQMNSLKTEDTAVYYCSAPNYYDGTYSFAYWGQGTLVTVSS
VL: DIQMTQSPSSLSASVGDRVTITCKASQNVGSNVDWYQQKPGKAPKLLIYKASNRYTGVPSRFSGSGSGTDFTFTISSLQPEDIATYYCMQSSTKYTFGQGTKVEIKR
notes: Fab made by proteolysis of the IgG; also called 3A3.v2.D92S
[4]
  EC50 (read off the curve): ~0.01 µM

B5: Fab of humanized anti-Ly6E variant LC D92E (Fab, V domains shown)
VH: EVQLVESGGGLVQPGGSLKLSCAASGFTFSTVAMHWVRQASGKGLEWVGRIRTKPVNYETYYADSVKGRFTISRDDSKSTVYLQMNSLKTEDTAVYYCSAPNYYDGTYSFAYWGQGTLVTVSS
VL: DIQMTQSPSSLSASVGDRVTITCKASQNVGSNVDWYQQKPGKAPKLLIYKASNRYTGVPSRFSGSGSGTDFTFTISSLQPEDIATYYCMQSETKYTFGQGTKVEIKR
notes: Fab made by proteolysis of the IgG; also called 3A3.v2.D92E
[4]
  EC50 (read off the curve): ~0.01 µM
